Measured values taken from patent publication EP4644419A1 (Hangzhou Zhongmeihuadong Pharmaceutical Co., Ltd., dated 2025).
Numbering of substitutions follows the chain as printed.

T1: human CD112R antigen protein huCD112R-His (Acro Biosysterm, PVG-H52H4) (human, UniProt Q6DKI7 41-171)
T1 construct: purchased; also called human antigen protein; not shown: His tag
T1 sequence (looked up): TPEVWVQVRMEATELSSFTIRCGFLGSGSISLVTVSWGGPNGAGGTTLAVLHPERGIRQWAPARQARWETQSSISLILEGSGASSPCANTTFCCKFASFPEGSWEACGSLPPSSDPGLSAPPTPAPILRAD

T2: monkey antigen protein (monkey CD112R, Uniprot ID: A0A2K5WVV8) (monkey, UniProt A0A2K5WVV8 41-171)
T2 sequence: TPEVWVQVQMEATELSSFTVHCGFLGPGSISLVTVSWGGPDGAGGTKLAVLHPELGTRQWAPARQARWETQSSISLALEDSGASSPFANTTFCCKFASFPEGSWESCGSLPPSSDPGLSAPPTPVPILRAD

B1: C33 (antibody, human IgG1, kappa, V domains shown)
VH: QVQLQQSGPELVKPGASVKISCKASGYTFTDYYINWVKQRPGQGLEWIGWIFPGSGSTYYNEKFKGKATPTVDKYSSTAYMLLSSLTSEDSAVYFCAREDYFDRGDCWGQGTSVTVSS
VL: QIVLTQSPAIMSASPGEKVTMTCSASSSINYMHWYQQKPGTSPKRWIYDTSKLASGVPARFSGSGSGTSYSLTISSMEAEDAATYYCHQRSSYPFTFGSGTKLEIKR
B2: C117 (antibody, human IgG1, kappa, V domains shown)
VH: QVQLQQSGAELARPGASVKMSCKASGYTFTDYWMQWVKQRPGQGLEWIGAIFPGNGETRDTQKFKGRATLTADRSSSTAYIQLSSLTSEDSAVYYCATFNNYLDYWGQGTTLTVAS
VL: QIVLTQSPAIMSASPGEKVTMTCSASSSVSYMHWYQQKSGASPKRWIYDTSKLTSGVPARFSGSGSGTSYSLTISNMEAEDAATYYCQQWISNPYTFGGGTKLEIKR
B3: C38 (antibody, human IgG1, kappa, V domains shown)
VH: QVQLQQSGAELMKPGASVKLSCKATGYTFTGYWIEWVKQRPGHGLEWIGEILPESGRTNYNEKFKGKATFTADTSSNTAYMQLSSLTTEDSAIYYCASLLFFDYWGQGTTLTVSS
VL: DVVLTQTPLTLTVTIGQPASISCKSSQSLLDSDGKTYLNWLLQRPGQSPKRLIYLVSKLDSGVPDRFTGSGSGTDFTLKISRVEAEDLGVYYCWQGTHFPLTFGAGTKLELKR
B4: C61 (antibody, human IgG1, kappa, V domains shown)
VH: DVQLQESGPGLVKPSQSLSLTCSVTGYSITSNYYWNWIRQFPGNNLEWMGYISSDGTNNYNPSLRNRISITRDTSKNQFFLKLNSVTTEDTATYYCARGLRYGPWGQGTTLTVSS
VL: QLILTQSSSASFSLGASAKLTCTLSSQHSTYTIEWYQQQPLKAPKYVMEVKNDGSHRTGDGIPDRFSGSSSGADRYLSISNIQPEDEAIYICGVGDINNYIFGGGTKVTVLR
B5: C51 (antibody, human IgG1, kappa, V domains shown)
VH: QVQLQQSGAELVRPGASVTLSCKASGYTFTDYEMHWVKQTPVHGLEWIGAIDPETGGTAYNQKFKGKAILTADKSSSTAYMELRSLTSEDSAVYYCTRWITTVVATLYYFDYWGQGTTLTVSS
VL: DIVMTQSQKFMSTSVGDRVSITCKASQNVRTAVAWYQQKPGQSPKALIYLASNRHTGVPDRFTGSGSGTDFTLTISNVQSEDLADYFCLQHWNYPLTFGAGTKLELKR
B6: C119 (antibody, human IgG1, kappa, V domains shown)
VH: EVKLVESGGGLVQPGGSLKLSCVASGFTFNTYIMSWVRQTPEKRLELVADISNSGGNTYYSDTVKGRFTISRDNAKNTLYLQMSSLKSEDTAMYYCARPDNWDPFVYWGQGTLVTVSA
VL: DIQMTQSSSSFSVSLGDRVTITCKASEDIYARLAWYQQKPGNAPRLLISGATSLETGVPSRFSGSGSGKNYTLSITSLQTEDVGTYYCQQHWSTPWTFGGGTNLEIKR
B7: C6 (antibody, human IgG1, kappa, V domains shown)
VH: QVHLHQSGPELVKPGASVKISCKASGYTFTAYYINWVKQRPGQGLEWIGWIFPGSDSTYYNEKFKGRATLTVDKSSSTAYMLLNSLTSEDSAVYFCARDGELRGPFDYWGQGTTLTVSS
VL: DIQMTQSPSSLSASLGGKVTITCKASQDINKYIAWYQHKPGKSPRLLIHYTSTLQAGIPSRFSGSGSGRDYSFSISNLEPEDSATYYCLQYDNLLTFGGGTKLEIKR
B8: C44 (antibody, human IgG1, kappa, V domains shown)
VH: QVQLQQSGPELMKPGASLKISCKASGYTFTDSYINWVKQRPGQGLEWIGWIFPGSGSTYYNEKFKGTATLTVDKSSSTAYMLLSSLTSEDSAAYFCARDGGLRGPFDYWGQGTTLTVSS
VL: B7 VL with S43G, A56S, S72F, P80S, S83I, N93H
B9: C45 (antibody, human IgG1, kappa, V domains shown)
VH: B7 VH with H5Q, E10D, A16V, A31D, D56G, S57T, R67K, N84S, E101G
VL: B7 VL with S26N, H38Y, S43G, A56P, G57D, Y71F, S83I, N93Y, L95Y
B10: C116 (antibody, human IgG1, kappa, V domains shown)
VH: EVKLVESGGGLVQPGGSLKLSCAVSGFTFSSYTMSWVRQTPEKRLELVAKISNSGGSTNYPDTVKGRFTLSRDNVKNTLYLQMSSLKSEDTAIYYCTRYSWDVYAMDYWGQGTSVTVSS
VL: DIQMTQSPASLSASVGETVIITCRASENIYSYLAWYQQKQGKSPHLLVYNAETLVEGVPSRFSGSGSATQFSLKINSLQPEDFGTYYCQHHYGDPTFGGGTKLEIKR
B11: C43 (antibody, human IgG1, kappa, V domains shown)
VH: QVQLQQPGAELVRPGTSVKLSCKASGNTFTTYWMHWVKQRPGQGHEWIGVIDASDSNTKYNQKFKGKATLTVDTSSSTAYMQLSSLTSEDSAVYYCARYYSGSSYGLDYWGQGTTLTVSS
VL: DIQMTQTASSLSASLGDRVTISCRASQDISNYLNWYQQKPDGTVKLLIYYTSRLHSGVPSRFSGSGSGTDYSLTITNLEQEDIASYFCQQGNMFPPTFGGGTKLEIKR
B12: C69 (antibody, human IgG1, kappa, V domains shown)
VH: EVQLQQSGPVLVKPGASVKMSCKASGYRLTDYYMHWVKQSHGKSLEWIGIINPYNGGTSYNQKFKGKATLTVDKSSSTAYMELNSLTSDDSAVYYCARDSSNVGNDMDYWGQGTSVSVSS
VL: B11 VL with A8T, Q37L, T51S, T76N, S85T, M93T, F94L, P96R, K107R
B13: C25 (antibody, human IgG1, kappa, V domains shown)
VH: B11 VH with T31S, N57K
VL: B11 VL with T76S, S85T, M93T, F94L
B14: C118 (antibody, human IgG1, kappa, V domains shown)
VH: QVQLQQPGAELVKPGTSVKLSCKAAGYIFTSSWMHWVKQRPGQGLEWIGEINPSDGRTNYNEKFKNKATLTVDHSSSTAYMQLSSLTSEDSAVYYCASNADRAYYTMDYWGQGTSVTVSS
VL: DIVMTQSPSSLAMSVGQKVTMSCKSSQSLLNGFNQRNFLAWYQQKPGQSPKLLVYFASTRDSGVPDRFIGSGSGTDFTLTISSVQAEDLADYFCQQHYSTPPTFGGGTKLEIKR
B15: C112 (antibody, human IgG1, kappa, V domains shown)
VH: B14 VH with T16A, A25S, I28T, N66S
VL: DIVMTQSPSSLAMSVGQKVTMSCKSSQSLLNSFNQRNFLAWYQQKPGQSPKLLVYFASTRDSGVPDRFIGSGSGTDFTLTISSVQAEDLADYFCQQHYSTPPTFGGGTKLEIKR
B16: C125 (antibody, human IgG1, kappa, V domains shown)
VH: EVKLVESGGGLVQPGGSLKLSCAASGFTFSSYTMSWVRQTPEKRLELVAELSNSGGSFHYPDNVKGRFTISRDNAKNTLYLQMSSLKSEDTAMYYCARHNWDVYAMDYWGQGTSVTVSS
VL: DIQMSQSPASLSASVGETVTITCRASENVNSYLAWYQQKQGRSPQFLVYNAQTLAEGVPSRFSGGGSGTQFSLKINSLQPEDFGSYYCQHHYGNPTFGGGTKLEIKR
B17: C9 (antibody, human IgG1, kappa, V domains shown)
VH: EVQLQQSGAELVKPGASVKLSCTASGFNIKDIYMHWLKQRPEQGLEWIGRIDPTNGNSEYDPRFRGKATLTADTSSNIAYLQLSSLTSEDTAVYYCARFGIYPYFDYWGQGTTLTVSS
VL: GIVMTQTPKFLLVSAGDRVTITCKASQSVNKAVVWYQQKPGQSPKLLISYASNRYTGVPDRFTGSGYGTDFTFSISTVQAEDLAVYFCQQDYSSPWTFGGGTKLEIKR
B18: C21 (antibody, human IgG1, kappa, V domains shown)
VH: B17 VH with I51V, R65Q
VL: B17 VL with G1S, S49N
B19: C110 (antibody, human IgG1, kappa, V domains shown)
VH: EVQLQQSGAELAKPGASVKLSCTVSGFNIKDTYIHWVKQRPEQGLEWIGGIDPAIGNTVSASKFQDKATITADTSSSTAYMQLSSLTSGDTAVYYCARERVHSNTLYYAMDYWGQGTSVTVSS
VL: DIVLTQSPASLAVSLGQRATISCRASKSVSISGYSYMHWYQQKPGQPPKLLIYLASNLESGVPARFSGSGSGTDFTLNIHPVEEEDAATYYCQHSRELPPTFGGGTKLEIKR
B20: C121 (antibody, human IgG1, kappa, V domains shown)
VH: EVQLQQSGPEVVKPGASVKISCKASGNTFTDYFINWVKQSHGKSLEWIGDINPDNGGTNYNQKFKGKATLTVDKSSGTAFMGLRSLTSEDSAVYYCATLYFDYWGQGTSLTVSS
VL: DIVMTQSPSSLSVSAGEKVTMSCKSSQSLLNSGNQKNYLAWYQQKPGQPPKLLIYGASTRESGVPDRFTGSGSGTDFTLTISSVQAEDLAVYYCQNAHSSPYTFGGGTRLEIKR
B21: C122 (antibody, human IgG1, kappa, V domains shown)
VH: B20 VH with S40R, I51V, Y100F, Y103S, S109T
VL: B20 VL with S12N, V91L, R109K
B22: C123 (antibody, human IgG1, kappa, V domains shown)
VH: EVQLVESGGGLVKPGGSLKLSCAASGFTFSNFAMSWVRQTPAMRLESVATIVNGGINTYYPDTVKGRFTVSRDNAKNTLYLQMSSLRSEDTAIYYCARHDDFLYYAMDYWGQGTSVTVSS
VL: QIVLTQSPAIMSASPGEKVTMTCSASSSVSYMFWYQQKPGSSPRLLIYDTSNLASGVPVRFSGSGSGTSYSLTISRLEAEDAATYYCQQWTSYPLTFGAGTKLDLKR
B23: C143 (antibody, human IgG1, kappa, V domains shown)
VH: B22 VH
VL: B22 VL with S30N

Target: T1, human CD112R antigen protein …
Experiment: ELISA, huCD112R-His coated on plate

Binder | EC50
B1 | 1300 pM
B2 | 41 pM
B3 | 64 pM
B4 | 89 pM
B5 | 228 pM
B6 | 25 pM
B7 | 55 pM
B8 | 53 pM
B9 | 59 pM
B10 | 25 pM
B11 | 51 pM
B12 | 23 pM
B13 | 52 pM
B14 | 29 pM
B15 | 28 pM
B16 | 49 pM
B17 | 52 pM
B18 | 66 pM
B19 | 32 pM
B20 | 37 pM
B21 | 30 pM
B22 | 35 pM
B23 | 25 pM

Target: T2, monkey antigen protein (monkey CD112R, …)
Experiment: ELISA, monkey antigen protein (as Example 6.1)

Binder | EC50
B2 | 45 pM
B5 | 224 pM
B6 | 80 pM
B7 | 58 pM
B8 | 76 pM
B9 | 114 pM
B10 | 61 pM
B11 | 44 pM
B12 | 51 pM
B13 | 3800 pM
B14 | 57 pM
B15 | 55 pM
B16 | 79 pM
B17 | 70 pM
B18 | 68 pM
B19 | 34 pM
B20 | 55 pM
B21 | 31 pM
B22 | 56 pM
B23 | 40 pM
